Source: patent US20260327578A1, “TRANSGLUTAMINASES AND USES THEREOF” (CURIE CO. INC., priority 2023, published 2026)

Legend:
N,N-dimethylcasein = assay: Rate of product formation over 60 minutes (protein functionalization assay); format: biochemical; design: key: −: a reduction in activity; +: an improvement between 1.2 and 2-fold; ++: an improvement between 2 and 5-fold; +++: an improvement greater than 5-fold; settings: improvement relative to wild-type Tgase (SEQ ID NO: 2); initial rate over 60 min
Method: Enzymatic “productivity” is a measure of product formation or substrate disappearance over time, at a prescribed temperature under specified reaction conditions. It is the measure both the durability and reaction yield of the enzyme variant. In this instance, productivity is defined as total product formed over 24-hours at a constant substrate concentration when the enzyme is the rate limiting factor. The time is defined as 24 hours, which represents approaching or surpassing burnout, denaturation, or self-reaction of the enzyme variant. In other words, variants with higher productivity deliver a higher product yield in 24-hours than variants with lower productivity produce in the same period of time. “Rate” refers to the initial rate for an enzymatic reaction, at a prescribed temperature under specified reaction conditions. The enzyme produces product at an initial rate that is approximately linear for a short period after the start of the reaction. When concentrations of enzyme and substrate are the same across the sample set, initial rates between enzyme variants can be compared. In this instance, the linear range for production of product occurs in one hour. Enzyme variants with faster initial rates deliver a higher product yield in one hour than variants with slower initial rates produce at the same time-period. In some cases, improvements to initial rates also deliver a more productive variant. In some cases, improvements to initial rates result in faster decay of the enzyme variant reducing overall enzymatic productivity. Productivity and rate may be assessed as described in Example 2.
Table 6 depicts variants of Streptomyces mobaraensis Tgase and improvement to productivity and/or rate relative to wild-type Tgase (SEQ ID NO. 2) as determined in Example 3. Numbering of amino acid positions is in reference to the mature S. mobaraensis Tgase sequence depicted in SEQ ID NO. 2. A “−” indicates a reduction in activity. A “+” indicates an improvement between 1.2 and 2-fold. A “++” indicates an improvement between 2 and 5-fold. A “+++” indicates an improvement greater than 5-fold.
Rate was assessed by measuring the rate of product formation over 60 minutes of incubation using a kinetic method to take scans every 60 seconds to determine product formation, using reaction conditions as described in Example 4B. The enzyme produces product at an initial rate that is approximately linear for the first one hour of the reaction. The concentrations of enzyme and substrate are the same across the sample set for each enzyme variant. Enzyme variants with faster initial rates deliver a higher product yield in one hour than variants with slower initial rates produce at the same time-period.
Protein functionalization by Tgase variants was determined by the fluorogenic labeling of casein using monodansylcadaverine (e.g., a commercially available kit such as the Transglutaminase Fluorogenic Activity Assay Kit, T036, Zedira, Germany). Tgase activity was monitored by measuring fluorescence (excitation wavelength 332 nm; emission wavelength 500 nm) using a BioTek Synergy H1 microplate reader. Transglutaminase-catalyzed covalent coupling (crosslinking) of monodansylcadaverine with N,N-dimethylcasein produces a product that causes a shift in intensity and wavelength of fluorescence of the dansyl group now linked to the casein. The relative transglutaminase activity is shown by increase of fluorescence intensity over time. Enzyme variant loading was optimized based on expression levels, ensuring enzyme was the rate limiting factor. Briefly, cell-free reactions (set up as described in Example 2A) were first diluted 10-fold using phosphate buffer, pH 7.4, and a 5 microliter aliquot was analyzed.

collagen = assay: Collagen-modifying activity with FITC-gelatin or FITC-cadaverine; format: biochemical; settings: 16 hours, pH 7.4
Method: Substrate specificity for collagen of Tgase variant A3 (SEQ ID NO: 4) was tested by allowing the variant to react with either fluorescein-labeled gelatin (FITC-Gelatin, to test protein-protein cross-linking) or fluorescein-labeled cadaverine (FITC-cadaverine, to test protein-small molecule cross-linking) with a collagen layer deposited on the bottom of a 96-well microtiter plate. Tgase variant A3 (SEQ ID NO: 4) and wild-type Tgase were diluted to 4-800 ppm in 50 mM phosphate buffer, pH 7.4, supplemented with 100 mM NaCl in 96-well collagen coated microtiter plates. Either FITC-gelatin or FITC-cadaverine was added to 1 g/L (final volume 100 μL) and the plates were sealed and incubated at either 37° C. or 50° C. for 16 hours. The reaction supernatants were carefully removed and then 200 μL 50 mM [COMPOUND LEFT OUT] mM NaCl, pH 7.4 buffer was added gently against the side of each well then carefully removed. This wash step was repeated. The plate-bound material was extracted by vigorously pipetting 100 μL dimethylsulfoxide into each well, then the extract was transferred into a black bottom 96-well plate. The fluorescence of the samples was measured at an excitation wavelength of 487 nm and an emission wavelength of 528 nm. The fluorescence signal is assumed to be proportionate to the concentration of fluorescent product extracted from the surface of the plate. For both FITC-gelatin and FITC-cadaverine, the fluorescence response per concentration enzyme was higher for wells treated with Tgase variant A3 (SEQ ID NO: 4) than for wells treated with wild-type Tgase (Table 11).

B1: A3: Tgase variant S2P Q50S Q74A K91H Q124L K151R K152R N282M G283A relative to SEQ ID NO: 2 (protein, UniProt P81453 77-407, looked up, variant S2P Q50S Q74A K91H Q124L K151R K152R N282M G283A)
Protein-glutamine …: DPDDRVTPPAEPLDRMPDPYRPSYGRAETVVNNYIRKWQQVYSHRDGRKSQMTEEQREWLSYGCVGVTWVNSGAYPTNRLAFASFDEDRFHNELKNGRPRSGETRAEFEGRVAKESFDEEKGFLRAREVASVMNRALENAHDESAYLDNLRRELANGNDALRNEDARSPFYSALRNTPSFKERNGGNHDPSRMKAVIYSKHFWSGQDRSSSADKRKYGDPDAFRPAPGTGLVDMSRDRNIPRSPTSPGEGFVNFDYGWFGAQTEADADKTVWTHGNHYHAPMASLGAMHVYESKFRNWSEGYSDFDRGAYVITFIPKSWNTAPDKVKQGWP
Rate (N,N-dimethylcasein): − | Fluorescence/[Enzyme] (collagen; FITC-Cadaverine, 37 °C): 20.3 RFU/ppm | Fluorescence/[Enzyme] (collagen; FITC-Cadaverine, 50 °C): 182.2 RFU/ppm | Fluorescence/[Enzyme] (collagen; FITC-Gelatin, 37 °C): 8.4 RFU/ppm | Fluorescence/[Enzyme] (collagen; FITC-Gelatin, 50 °C): 36.9 RFU/ppm
